Test results reported in patent US20220402983A1 (Janssen / Centocor, published 2022).
*1 amine or outer side, *2 acyl side, *3 side chain or, on linkers, in order; H or OH if unused. Bridges are numbered along the chain shown (N, C = ends). Where no end group is shown, it is not given here. [ ]: non-standard residue; d: D form. dPhe(3,4-diOMe) = D-Phe with 3,4-dimethoxy, COc1ccc(C[C@@H](N[*:1])C(=O)[*:2])cc1OC; αMe2Nal = alpha-methyl-2-Nal, C[C@@](Cc1ccc2ccccc2c1)(N[*:1])C(=O)[*:2]; Phe(3,4-(OMe)2) = COc1ccc(C[C@H](N)C(=O)O)cc1OC; Trp(5-F) = N[C@@H](Cc1c[nH]c2ccc(F)cc12)C(=O)O; Trp(7-Me) = Cc1cccc2c(C[C@H](N)C(=O)O)c[nH]c12; 2Nal = N[C@@H](Cc1ccc2ccccc2c1)C(=O)O; AEF = NCCOc1ccc(C[C@H](N)C(=O)O)cc1; αMeF = C[C@](N)(Cc1ccccc1)C(=O)O; αMeE = C[C@](N)(CCC(=O)O)C(=O)O; Pen = CC(C)(S)[C@H](N)C(=O)O; αMeK = C[C@](N)(CCCCN)C(=O)O; αMeC = C[C@](N)(CS)C(=O)O; Ac5c = NC1(C(=O)O)CCCC1; Thp = NC1(C(=O)O)CCOCC1; Abu = CC[C@H](N)C(=O)O

T1: human IL-23R (interleukin-23 receptor) (human, UniProt Q5VWK5 24-629)
T1 sequence (looked up): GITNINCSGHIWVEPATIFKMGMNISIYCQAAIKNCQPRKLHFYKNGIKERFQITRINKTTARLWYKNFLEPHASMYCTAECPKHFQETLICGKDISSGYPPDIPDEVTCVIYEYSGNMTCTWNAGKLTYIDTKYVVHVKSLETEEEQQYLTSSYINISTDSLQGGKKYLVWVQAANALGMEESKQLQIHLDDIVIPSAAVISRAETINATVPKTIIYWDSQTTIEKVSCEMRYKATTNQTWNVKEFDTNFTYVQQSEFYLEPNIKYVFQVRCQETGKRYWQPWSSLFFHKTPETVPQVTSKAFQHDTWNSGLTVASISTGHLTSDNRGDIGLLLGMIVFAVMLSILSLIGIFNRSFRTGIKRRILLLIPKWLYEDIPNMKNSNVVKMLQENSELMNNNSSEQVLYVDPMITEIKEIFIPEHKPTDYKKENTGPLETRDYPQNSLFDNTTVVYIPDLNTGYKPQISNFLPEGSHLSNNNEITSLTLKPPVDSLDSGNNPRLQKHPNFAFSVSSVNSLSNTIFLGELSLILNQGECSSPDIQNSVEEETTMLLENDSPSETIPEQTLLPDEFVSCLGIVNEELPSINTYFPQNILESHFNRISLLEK

B1: Compound No. 97 (peptide)
peptide: Ac-[dR][Pen]QTWQ[Pen][AEF][2Nal][Thp]EN[αMeF]-NH2
modifications: disulfide 2-7
SMILES: CC(=O)N[C@H](CCCNC(=N)N)C(=O)N[C@@H]1C(=O)N[C@@H](CCC(N)=O)C(=O)N[C@@H]([C@@H](C)O)C(=O)N[C@@H](Cc2c[nH]c3ccccc23)C(=O)N[C@@H](CCC(N)=O)C(=O)N[C@H](C(=O)N[C@@H](Cc2ccc(OCCN)cc2)C(=O)N[C@@H](Cc2ccc3ccccc3c2)C(=O)NC2(C(=O)N[C@@H](CCC(=O)O)C(=O)N[C@@H](CC(N)=O)C(=O)N[C@@](C)(Cc3ccccc3)C(N)=O)CCOCC2)C(C)(C)SSC1(C)C
B2: Compound No. 93 (peptide)
peptide: Ac-[dR][Pen]NT[Trp(7-Me)]Q[Pen][AEF][2Nal][Ac5c]EN[αMeF]-NH2
modifications: disulfide 2-7
SMILES: CC(=O)N[C@H](CCCNC(=N)N)C(=O)N[C@@H]1C(=O)N[C@@H](CC(N)=O)C(=O)N[C@@H]([C@@H](C)O)C(=O)N[C@@H](Cc2c[nH]c3c(C)cccc23)C(=O)N[C@@H](CCC(N)=O)C(=O)N[C@H](C(=O)N[C@@H](Cc2ccc(OCCN)cc2)C(=O)N[C@@H](Cc2ccc3ccccc3c2)C(=O)NC2(C(=O)N[C@@H](CCC(=O)O)C(=O)N[C@@H](CC(N)=O)C(=O)N[C@@](C)(Cc3ccccc3)C(N)=O)CCCC2)C(C)(C)SSC1(C)C
B3: Compound No. 84 (peptide)
peptide: Ac-[Pen]QTWK(Ac)[Pen][AEF][2Nal][αMeK]K(Ac)N[Thp]-NH2
modifications: disulfide 1-6
SMILES: CC(=O)NCCCC[C@@H]1NC(=O)[C@H](Cc2c[nH]c3ccccc23)NC(=O)[C@H]([C@@H](C)O)NC(=O)[C@H](CCC(N)=O)NC(=O)[C@@H](NC(C)=O)C(C)(C)SSC(C)(C)[C@@H](C(=O)N[C@@H](Cc2ccc(OCCN)cc2)C(=O)N[C@@H](Cc2ccc3ccccc3c2)C(=O)N[C@@](C)(CCCCN)C(=O)N[C@@H](CCCCNC(C)=O)C(=O)N[C@@H](CC(N)=O)C(=O)NC2(C(N)=O)CCOCC2)NC1=O
B4: Compound No. 74 (peptide)
peptide: Ac-[Pen]N[dD][Trp(7-Me)]K(Ac)[Pen][AEF][2Nal][αMeK]K(Ac)N[dL]-NH2
modifications: disulfide 1-6
SMILES: CC(=O)NCCCC[C@@H]1NC(=O)[C@H](Cc2c[nH]c3c(C)cccc23)NC(=O)[C@@H](CC(=O)O)NC(=O)[C@H](CC(N)=O)NC(=O)[C@@H](NC(C)=O)C(C)(C)SSC(C)(C)[C@@H](C(=O)N[C@@H](Cc2ccc(OCCN)cc2)C(=O)N[C@@H](Cc2ccc3ccccc3c2)C(=O)N[C@@](C)(CCCCN)C(=O)N[C@@H](CCCCNC(C)=O)C(=O)N[C@@H](CC(N)=O)C(=O)N[C@H](CC(C)C)C(N)=O)NC1=O
B5: Compound No. 88 (peptide)
peptide: Ac-[dR][Pen]NTWK(Ac)[Pen][AEF][2Nal][Ac5c]EN[Thp]-NH2
modifications: disulfide 2-7
SMILES: CC(=O)NCCCC[C@@H]1NC(=O)[C@H](Cc2c[nH]c3ccccc23)NC(=O)[C@H]([C@@H](C)O)NC(=O)[C@H](CC(N)=O)NC(=O)[C@@H](NC(=O)[C@@H](CCCNC(=N)N)NC(C)=O)C(C)(C)SSC(C)(C)[C@@H](C(=O)N[C@@H](Cc2ccc(OCCN)cc2)C(=O)N[C@@H](Cc2ccc3ccccc3c2)C(=O)NC2(C(=O)N[C@@H](CCC(=O)O)C(=O)N[C@@H](CC(N)=O)C(=O)NC3(C(N)=O)CCOCC3)CCCC2)NC1=O
B6: Compound No. 91 (peptide)
peptide: Ac-[dR][Pen]NT[Trp(7-Me)]Q[Pen][AEF][2Nal][Thp]EN[αMeF]-NH2
modifications: disulfide 2-7
SMILES: CC(=O)N[C@H](CCCNC(=N)N)C(=O)N[C@@H]1C(=O)N[C@@H](CC(N)=O)C(=O)N[C@@H]([C@@H](C)O)C(=O)N[C@@H](Cc2c[nH]c3c(C)cccc23)C(=O)N[C@@H](CCC(N)=O)C(=O)N[C@H](C(=O)N[C@@H](Cc2ccc(OCCN)cc2)C(=O)N[C@@H](Cc2ccc3ccccc3c2)C(=O)NC2(C(=O)N[C@@H](CCC(=O)O)C(=O)N[C@@H](CC(N)=O)C(=O)N[C@@](C)(Cc3ccccc3)C(N)=O)CCOCC2)C(C)(C)SSC1(C)C
B7: Compound No. 95 (peptide)
peptide: Ac-[Pen]NTWK(Ac)[Pen][AEF][2Nal][αMeK]K(Ac)N[Thp]-NH2
modifications: disulfide 1-6
SMILES: CC(=O)NCCCC[C@@H]1NC(=O)[C@H](Cc2c[nH]c3ccccc23)NC(=O)[C@H]([C@@H](C)O)NC(=O)[C@H](CC(N)=O)NC(=O)[C@@H](NC(C)=O)C(C)(C)SSC(C)(C)[C@@H](C(=O)N[C@@H](Cc2ccc(OCCN)cc2)C(=O)N[C@@H](Cc2ccc3ccccc3c2)C(=O)N[C@@](C)(CCCCN)C(=O)N[C@@H](CCCCNC(C)=O)C(=O)N[C@@H](CC(N)=O)C(=O)NC2(C(N)=O)CCOCC2)NC1=O
B8: Compound No. 83 (peptide)
peptide: [dR][Abu]QTWQ[αMeC][AEF][2Nal][Thp]EN[αMeF]-NH2
modifications: thioether 2-7; not fully specified (N-terminus); printed as pr-[(D)Arg]-[Abu]-Q-T-W-Q-[aMeCys]-Phe[4-(2-aminoethoxy)]-[2-Nal]-[THP]-E-N-[a-MePhe]-NH2
B9: Compound No. 85 (peptide)
peptide: [dR][Abu]QTWQC[AEF][2Nal][Thp]EN[αMeF]-NH2
modifications: thioether 2-7; not fully specified (N-terminus); printed as pr-[(D)Arg]-[Abu]-Q-T-W-Q-[Cys]-Phe[4-(2-aminoethoxy)]-[2-Nal]-[THP]-E-N-[a-MePhe]-NH2
B10: Compound No. 82 (peptide)
peptide: Ac-[Pen]QTWK(Ac)[Pen][AEF][2Nal][αMeK]K(Ac)N[αMeF]-NH2
modifications: disulfide 1-6
SMILES: CC(=O)NCCCC[C@@H]1NC(=O)[C@H](Cc2c[nH]c3ccccc23)NC(=O)[C@H]([C@@H](C)O)NC(=O)[C@H](CCC(N)=O)NC(=O)[C@@H](NC(C)=O)C(C)(C)SSC(C)(C)[C@@H](C(=O)N[C@@H](Cc2ccc(OCCN)cc2)C(=O)N[C@@H](Cc2ccc3ccccc3c2)C(=O)N[C@@](C)(CCCCN)C(=O)N[C@@H](CCCCNC(C)=O)C(=O)N[C@@H](CC(N)=O)C(=O)N[C@@](C)(Cc2ccccc2)C(N)=O)NC1=O
B11: Compound No. 87 (peptide)
peptide: XNTXQXFXKKNX
modifications: Ac-[Pen]-N-T-[W(7-Me)]-Q-[Pen]-Phe[4-(2-aminoethoxy)]-[2-Nal]-[a-MeLys]-[Lys(Ac)]-N-[THP]-NH2; cyclized: Pen-Pen disulfide bond
B12: Compound No. 90 (peptide)
peptide: Ac-[dR][Pen]NT[Trp(7-Me)]Q[Pen][AEF][2Nal][Thp]EN[Thp]-NH2
modifications: disulfide 2-7
SMILES: CC(=O)N[C@H](CCCNC(=N)N)C(=O)N[C@@H]1C(=O)N[C@@H](CC(N)=O)C(=O)N[C@@H]([C@@H](C)O)C(=O)N[C@@H](Cc2c[nH]c3c(C)cccc23)C(=O)N[C@@H](CCC(N)=O)C(=O)N[C@H](C(=O)N[C@@H](Cc2ccc(OCCN)cc2)C(=O)N[C@@H](Cc2ccc3ccccc3c2)C(=O)NC2(C(=O)N[C@@H](CCC(=O)O)C(=O)N[C@@H](CC(N)=O)C(=O)NC3(C(N)=O)CCOCC3)CCOCC2)C(C)(C)SSC1(C)C
B13: Compound No. 89 (peptide)
peptide: XNTXQXFXKKNF
modifications: Ac-[Pen]-N-T-[W(7-Me)]-Q-[Pen]-Phe[4-(2-aminoethoxy)]-[2-Nal]-[a-MeLys]-[Lys(Ac)]-N-[a-MePhe]-NH2; cyclized: Pen-Pen disulfide bond
B14: Compound No. 94 (peptide)
peptide: Ac-[dR][Pen]NT[Trp(7-Me)]K(Ac)[Pen][AEF][2Nal][Ac5c]EN[αMeF]-NH2
modifications: disulfide 2-7
SMILES: CC(=O)NCCCC[C@@H]1NC(=O)[C@H](Cc2c[nH]c3c(C)cccc23)NC(=O)[C@H]([C@@H](C)O)NC(=O)[C@H](CC(N)=O)NC(=O)[C@@H](NC(=O)[C@@H](CCCNC(=N)N)NC(C)=O)C(C)(C)SSC(C)(C)[C@@H](C(=O)N[C@@H](Cc2ccc(OCCN)cc2)C(=O)N[C@@H](Cc2ccc3ccccc3c2)C(=O)NC2(C(=O)N[C@@H](CCC(=O)O)C(=O)N[C@@H](CC(N)=O)C(=O)N[C@@](C)(Cc3ccccc3)C(N)=O)CCCC2)NC1=O

The binders below were run against T1, human IL-23R (interleukin-23 receptor) (assay: cell-based or functional assay).

Row | PBMC pSTAT3 IC50 (nM) | pStat3 HTRF (nM), IC50, DB cells IL23R pSTAT3 cell assay [nM] | Binder
1 | 31 | – | B1
2 | 4.6 | – | B2
3 | 54 | – | B3
4 | 46 | – | Ac-[dR][Abu]QTWQC[AEF][2Nal][Thp]EN[αMe2Nal]-NH2 (thioether 2-7) [Compound No. 80]
5 | – | 73.1 | B4
6 | 3.7 | – | B5
7 | 4.1 | – | B6
8 | 31 | – | Ac-[dR][Abu]QTWQC[AEF][2Nal][Thp][αMeE]N[Phe(3,4-(OMe)2)]-NH2 (thioether 2-7) [Compound No. 78]
9 | 22 | – | B7
10 | 33 | – | B8
11 | 7.6 | – | B9
12 | 54 | – | B10
13 | 3.6 | – | B11
14 | 3.7 | – | B12
15 | 25 | – | Ac-[dR][Abu]QTWQC[AEF][2Nal][Thp][αMeE]N[dPhe(3,4-diOMe)]-NH2 (thioether 2-7) [Compound No. 79]
16 | 30 | – | Ac-[dR][Abu]QTWQC[AEF][2Nal][Thp][αMeE]N[Trp(5-F)]-NH2 (thioether 2-7) [Compound No. 81]
17 | 12 | – | B13
18 | 12 | – | B14
